In one assay the target is T1, mouse C5a (mouse, UniProt P06684 683-755).
T1 construct: also called recombinant mouse C5a
T1 sequence: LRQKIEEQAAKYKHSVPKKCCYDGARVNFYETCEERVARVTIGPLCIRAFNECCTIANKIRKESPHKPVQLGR
Kind of assay: SPR (Biacore); antibody captured by anti-human Fc on CM5 chip, recombinant mouse C5a 0.6-5.9 nM as analyte; 1:1 Langmuir fit; footnote: only an approximation of the KD. How it is done:
The surface was regenerated with 20 mM HCl, 0.02% P20 after each cycle to remove bound antibody and antigen. The data were evaluated using Biacore BlAevaluation software using a 1:1 Langmuir Model Fit (Rmax:Global Fit; R1:Local Fit).
For orientation: Surface plasmon resonance follows binding to a sensor surface in real time, without labels.

Another assay has as its target T2, cynomolgus macaque C5a (cynomolgus macaque).
T2 construct: also called recombinant cynomolgus macaque C5a; cynomolgus C5a
T2 chain: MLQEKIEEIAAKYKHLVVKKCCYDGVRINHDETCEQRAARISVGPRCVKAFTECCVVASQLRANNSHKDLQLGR
The assay is described as follows: SPR (Biacore); antibody captured by anti-human Fc on CM5 chip, recombinant cynomolgus C5a 0.6-5.9 nM as analyte; 1:1 Langmuir fit. How it is done: The surface was regenerated with 20 mM HCl, 0.02% surfactant P20 (Biacore) after each cycle to remove bound antibody and antigen. The data was evaluated using Biacore BlAevaluation software using a 1:1 Langmuir Model Fit (Rmax:Global Fit; R1:Local Fit). These experiments were for screening purposes with a minimal number of analyte concentrations (3 to 4) with 1 duplicate.

A further assay addresses T3, human C4a (human, UniProt P0C0L4 680-756).
T3 construct: domain: C4a
T3 sequence (looked up): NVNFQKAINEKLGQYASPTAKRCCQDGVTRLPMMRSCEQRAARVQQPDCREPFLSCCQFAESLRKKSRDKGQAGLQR
Kind of assay: Biolayer interferometry (Octet); biotinylated antigen on streptavidin tip, IgG in solution. (In general: Biolayer interferometry detects binding as a change in optical thickness at a sensor tip.)

Another assay concerns the target T4, human C3a (human, UniProt P01024 672-748).
T4 construct: domain: C3a
The description is as above.

In another assay the target is T5, human full-length C5 (human, UniProt P01031 19-673; P01031 678-1676).
T5 construct: mature; also called uncleaved human C5; native, fully-folded human C5
The assay is described as above.

Another assay addresses T6, human C5a desarg (human, UniProt P01031 678-750).
T6 construct: also called desarginated C5a; hC5a desarg
T6 sequence: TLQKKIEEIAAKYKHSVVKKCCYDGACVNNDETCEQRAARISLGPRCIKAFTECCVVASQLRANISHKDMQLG
The assay is described as follows: Biolayer interferometry (Octet); biotinylated antigen on streptavidin tip, 20 nM IgG in solution.

The next assay addresses T7, human C5a (human, UniProt P01031 678-751).
T7 construct: also called hC5a; free human C5a
T7 sequence: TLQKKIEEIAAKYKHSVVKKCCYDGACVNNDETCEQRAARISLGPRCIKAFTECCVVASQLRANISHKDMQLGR
The assay is described as follows: Biolayer interferometry (Octet).

T5 sequence (P01031 19-673 limits assumed, one chain of several): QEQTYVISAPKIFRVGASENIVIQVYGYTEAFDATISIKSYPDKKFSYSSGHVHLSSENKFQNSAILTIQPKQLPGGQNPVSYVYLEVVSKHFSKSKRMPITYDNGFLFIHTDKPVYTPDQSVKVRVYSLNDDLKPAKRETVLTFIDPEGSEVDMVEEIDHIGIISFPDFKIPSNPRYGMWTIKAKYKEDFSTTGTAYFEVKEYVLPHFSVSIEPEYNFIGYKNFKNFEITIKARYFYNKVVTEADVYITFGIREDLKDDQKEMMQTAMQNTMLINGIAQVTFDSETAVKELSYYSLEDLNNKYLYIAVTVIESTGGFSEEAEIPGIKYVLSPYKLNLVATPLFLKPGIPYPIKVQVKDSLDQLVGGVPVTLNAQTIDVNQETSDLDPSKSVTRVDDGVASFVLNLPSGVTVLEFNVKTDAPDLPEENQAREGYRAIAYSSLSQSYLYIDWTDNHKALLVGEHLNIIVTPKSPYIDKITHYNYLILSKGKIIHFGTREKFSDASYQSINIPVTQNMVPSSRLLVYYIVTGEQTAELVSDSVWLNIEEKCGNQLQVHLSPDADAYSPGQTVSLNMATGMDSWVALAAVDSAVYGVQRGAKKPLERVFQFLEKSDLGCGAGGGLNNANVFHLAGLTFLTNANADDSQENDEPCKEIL
T4 sequence (P01024 672-748 limits assumed): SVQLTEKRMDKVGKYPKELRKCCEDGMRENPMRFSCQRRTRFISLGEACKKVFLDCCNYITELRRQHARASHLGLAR

B1: BNJ383 (antibody, human IgG2, kappa, V domains shown)
VH: QVQLVQSGAEVKKPGASVKVSCKASGYTFTDYSMDWVRQAPGQGLEWMGAIHLNTGYTNYNQKFKGRVTMTRDTSTSTVYMELSSLRSEDTAVYYCARGFYDGYSPMDYWGQGTTVTVSS
VL: DIQMTQSPSSLSASVGDRVTITCRASESVDSYGNSFMHWYQQKPGKAPKLLIYRASNLESGVPSRFSGSGSGTDFTLTISSLQPEDFATYYCQQSNEDPYTFGGGTKVEIKR
notes: Humanized bivalent full length IgG; also called anti-hC5a antibody
With B1, the Kd with mouse C5a is ~0.379 nM; in the assay with cynomolgus macaque C5a, 3.3 nM.

B2: 5an101ME (antibody, V domains shown)
VH: EVQLQQSGPELVKPGSSVKISCKASGYTFTDYSMDWVKQSHGKSLEWIGAINPNSGGTNYSQKFKDKATLTVDKSSSTAYMELRSLTSEDSAVYYCASSGSYDGYYAMDYWGQGTSVTVSS
VL: DIVMTQSPASLAVSLGQRATISCRASESVDSYGNSFMHWYQQKPGQPPKLLIYRASNLESGIPARFSGSGSRTDFTLTINPVEADDVATYYCQQSNEDPYTFGGGTKLEIKR
notes: Full length mouse IgG2a
As to B2, the binding result is given as “no binding (tested: 20 nM)” with human C4a; “no binding (tested: 20 nM)” in the assay with human C3a; “no binding (tested: 20 nM)” in the assay with human full-length C5; “binds” with human C5a desarg; “binds” with human C5a.

B3: 5an180ME (antibody, V domains shown)
VH: EVQLQQPGAEIVRPGASVKLSCRASGYTFTDYWMNWVKQRPGQGLEWIGTIDPSDSYTIYNQKFKGKATLTVDTSSTTAYIQLSSLTSEDSAVYFCARGEDYDVSSYTMDYWGQGTSVTVSS
VL: DIQMTQSPASLSASVGETVTITCRASENIYSYLAWYQQKQGKSPQLLVYNAKTLAEGVPSRFSGSGSGTQFSLKINSLQPEDFGSYYCQHHYGTPYTFGGGTKLEIKR
notes: Full length mouse IgG2a
With B3, the binding result in the assay with human C4a is “no binding (tested: 20 nM)”; in the assay with human C3a, “no binding (tested: 20 nM)”; in the assay with human full-length C5, “no binding (tested: 20 nM)”; with human C5a desarg it was “binds”; with human C5a, “binds”.

As a reminder, the Kd is the free concentration of one partner at which half of the binding sites on the other are occupied at equilibrium, for simple one-to-one binding.

These data come from patent US20130224187A1 (Alexion, published 2013).
